Experimental data: patent publication US12139531B2, “Compositions and methods useful in promoting milk production” (The Regents of the University of California, priority 2019, dated 2024)
“Also recorded” adds a separate entry of the source.

Legend:
[1] = test system: bovine alveolar progenitor cells (AVPs); test: Organoid growth of FACS-purified bovine alveolar progenitor cells in Matrigel; assay type: cell-based; settings: single cells in Matrigel, 10 days, vs untreated controls
Experimental: The influence of ROBO1 ECD fragments in vitro on primary alveolar progenitor cell growth and in vivo on branching morphogenesis was tested. FACS-purified murine and bovine alveolar progenitor cells (AVPs) were plated as single cells in Matrigel and grown for 10 days in the absence and presence of ROBO1-ECDs fragments (FIGS. 9A, B). […] ROBO1-Ig5 fragments were also tested in vivo by subcutaneously injecting them (7.5 mammary gland/kg/day) into ovariectomized animals that were orally administered hormones in Nutella: estrogen (E, 1 μg/day), progesterone (P, 1 mg/day mammary gland/day) and prolactin (Prl, 0.2 mg/day mammary gland/day) (FIG. 9C). The mammary glands were harvested after 14 days of ROBO1-Ig5 fragment treatment, carmine stained and evaluated. […] Other aspects can involve ROBO1-ECD constructs that are tagged with the murine-Fc sequence. This tag is recognized by an endogenous receptor that facilitates transport into tissues 4.
FACS purified AVPs were cultured in Matrigel (BD Bioscience) at a density of 5000 cell/100 uL and cultured in basal medium; DMEM: F12 phenol-free, 10 mM HEPES, N2 (Gibco), B27 (Gibco) supplemented with 100 ng/mL Neuregulin (R&D), 42.5 ng/mL R-Spondin1 (Peprotech) […]. […]

HC11 cells [2] = test: HC11 dome assay (milk dome formation on differentiation in DIP media); assay type: cell-based, mouse
Experimental: To investigate ROBO1 function during alveologenesis, Robo1 gene expression was inhibited in HC11 cells (Robo1 KD). HC11 cells are a well-established, prolactin-responsive model of lactation,^19,20. Cells in which Robo1 gene expression was not inhibited are referred to as WT or Robo1+/+ herein. To measure milk production, cells were grown to confluence and then primed by treatment with epidermal growth factor (EGF, 10 ng/ml). The EGF is administered for three days in combination with charcoal-stripped fetal bovine serum, followed by one day of charcoal-stripped fetal bovine serum in the absence of EGF. These primed cells are then differentiated by treatment with dexamethasone (1 μg/ml), insulin (5 μg/ml) and prolactin (Prl, 5 μg/ml) media (DIP media) for between 3 and 5 days (FIG. 2A). Differentiation (Dif) results in the development of milk-filled domes (FIG. 2B). […] If the cells were left undifferentiated (Undif), there was little dome formation in either WT or Robo1−/− cells (FIG. 2B). Next, tissue from Robo1 knockout mice (Robo1−/−) and wild type mice (WT or Robo1+/+) mice was analyzed. Mammary glands were harvested from pregnant day 18 WT and Robo1−/− animals and alveologenesis analyzed by serially sectioning, carmine staining and then quantifying the area occupied by alveoli in sections located at top, middle and bottom portions of the tissue.
Dome number formation in response to a titration of ROBO1 ECD fragments was quantified. […] A bovine ROBO1-Ig5 construct was also tested in this assay and, as with the rat constructs, more domes were formed in response to treatment with higher concentrations of […] (FIG. 7H).
HC11 cells were grown in RPMI 1640 media (Gibco) supplemented with 10% fetal bovine serum (BioFluid Technologies), 5 μg/mL insulin (Sigma), and 10 ng/ml epidermal growth factor (EGF; Sigma). To induce differentiation in HC11 cells, confluent plates were given fresh media (RPMI 1640 media supplemented with 5% charcoal-stripped fetal bovine serum (BioFluid Technologies), 5 μg/mL insulin, and 10 ng/ml epidermal growth factor (EGF; Sigma) for 3 days followed by 24 hours of priming in priming medium (RPMI 1640 media supplemented with 5% charcoal-stripped fetal bovine serum (BioFluid Technologies), and 5 μg/mL insulin. After priming, DIP medium (RPMI 1640 media supplemented with 5% charcoal-stripped fetal bovine serum (BioFluid Technologies), 10^−6 M dexamethasone (Sigma), 5 μg/mL insulin, and 5 μg/mL prolactin (National Hormone and Peptide program) was added with fresh media every 24 hours.

HC11 cells [3] = test: Western blot analysis of WAP and PLIN2 in HC11 cells; assay type: cell-based, mouse; settings: ECD titration
Experimental: To determine whether the promotion of dome formation also results in higher milk production, HC11 cells were differentiated in the presence or absence of ROBO1-ECD fragments that were added to cells simultaneously with DIP media. Cells were harvested and the expression of WAP and Lalba assessed by RT-qPCR. […] WAP expression levels were not increased in cells treated with DCC-Ig4 (FIG. 7K). Next, Western blot analysis of WAP and PLIN2 was performed on cells treated with ROBO1-Ig5 and ROBO1-Ecto.
Protein lysates were prepared by directly lysing adherent cells in 1× sample buffer supplemented with 5% beta-mercaptoethanol and boiled for 5 minutes. Protein lysate was resolved by SDS-PAGE and transferred to a PVDF for 90 minutes at 400 mA or overnight at 30 mA. Primary antibodies were used at the concentration indicated in Table 1 and incubated overnight at 4° C. HRP conjugated secondary antibodies (Jackson Labs) were used at 1:3000 and incubated for 45 minutes at room temp. All proteins were detected using Clarity ECL (BioRad) using a BioRad Chemi-Doc MP Imager and quantified using ImageLab software as previously described a.

B1: ROBO1-Ig5: recombinant soluble ROBO1 ECD construct comprising all five Ig domains (protein)
chain: SRLRQEDFPPRIVEHPSDLIVSKGEPATLNCKAEGRPTPTIEWYKGGERVETDKDDPRSHRMLLPSGSLFFLRIVHGRKSRPDEGVYICVARNYLGEAVSHNASLEVAILRDDFRQNPSDVMVAVGEPAVMECQPPRGHPEPTISWKKDGSPLDDKDERITIRGGKLMITYTRKSDAGKYVCVGTNMVGERESEVAELTVLERPSFVKRPSNLAVTVDDSAEFKCEARGDPVPTVRWRKDDGELPKSRYEIRDDHTLKIRKVTAGDMGSYTCVAENMVGKAEASATLTVQEPPHFVVKPRDQVVALGRTVTFQCEATGNPQPAIFWRREGSQNLLFSYQPPQSSSRFSVSQTGDLTVTNVQRSDVGYYICQTLNVAGSIITKAYLEVTDVIADRPPPVIRQGPVNQTVAVDGTLTLSCVATGSPVPTILWRKDGVLVSTQDSRIKQLESGVLQIRYAKLGDTGRYTCTASTPSGEATWSAYIEVQEF
B1 was tested, and the “size of bovine organoids” value [1] was “larger bovine organoids; also recorded: increased the size”, the “dome formation in control cells (Scr)” value (HC11 cells [2]; HC11 Scramble KD (Scr) cells, ROBO1-ECD treatment) was “increased dome formation” and the “dome formation in response to a titration of ECD fragments” value (HC11 cells [2]; HC11 cells, increasing ECD concentration) was “higher rates of dome formation”. The “dome formation with ECD fragments generated in the presence of heparin” value (HC11 cells [2]; HC11 cells, vs same fragments generated in the absence of heparin (300 ng/ml)) was “fewer domes; also recorded: diminished”, the “dome formation in Notch4 knockdown cells (shNotch4)” value (HC11 cells [2]; HC11 shNotch4 cells, ROBO1-Ig5 treatment) was “same level of dome formation as untreated Notch4 knockdown cells; also recorded: unaffected” and the “dome formation in cells in which Robo1 expression was inhibited (shRobo1)” value (HC11 cells [2]; HC11 shRobo1 cells, ROBO1-Ig5 treatment) was “same level as that of control cells (Scr) treated with ROBO1-ECD fragments; also recorded: rescued”. For the same molecule, the PLIN2 protein expression (HC11 cells [3]) was “approximately two-fold; also recorded: increased” and the WAP protein expression (HC11 cells [3]) was “approximately two-fold; also recorded: increased”.
